Experimental data from patent publication US20240092920A1 (KEYMED BIOSCIENCES, published 2024).
Changes are numbered by the printed parent chain.

Legend:
[1] = molecular target: T1, recombinant protein of cynomolgus IL-4Rα extracellular region (cynomolgus monkey); test: ELISA on coated cynomolgus cynoIL-4Rα (10 ug/ml), HRP-linked secondary antibody, OD450
T1 construct: also called cynoIL-4Rα; cynomolgus monkey IL-4Rα
T1 chain: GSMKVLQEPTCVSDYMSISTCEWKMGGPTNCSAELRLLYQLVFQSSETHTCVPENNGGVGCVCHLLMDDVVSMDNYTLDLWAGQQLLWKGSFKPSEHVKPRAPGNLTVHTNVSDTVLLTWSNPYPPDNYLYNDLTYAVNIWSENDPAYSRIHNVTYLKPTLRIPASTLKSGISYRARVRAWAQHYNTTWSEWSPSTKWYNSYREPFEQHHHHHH
Protocol: (§1) 1 ug/ml human hIL-4Rα, 10 ug/ml cynomolgus cynoIL-4Rα, 1 ug/ml mouse mIL-4Rα (Sino Biological, Cat: 80198-R08H) and 1 ug/ml rat-derived ratIL-4Rα (Sino Biological, Cat: 51180-MO8H) are diluted in 0.05 M carbonate coating buffer (pH 9.5) at 4° C. overnight. The solution in the wells is discarded the next day and the wells are washed 3 times with PBS washing buffer. Then PBS solution containing 2% BSA is added for blocking for 2 hours. After washing 3 times with PBS washing buffer, 100 ul of humanized candidate antibodies at different diluted concentrations is added, incubated for 1 h at room temperature, and then washed 3 times with PBS washing buffer; the HRP cross-linked antibody (Jackson Immuno Research) is diluted at 1:10000 with PBS washing buffer and incubated for 1 hour at room temperature. After washing 3 times with PBS washing buffer, 100 ul of TMB substrate solution is added to develop color, and after reaction at room temperature for 10 minutes; the reaction is stopped by the addition of 50 ul of 0.5 M concentrated sulfuric acid solution and the absorbance at 450 nm is read.

[2] = molecular target: T2, hIL-4Rα, full length, on stably transfected HEK293 cells (human, UniProt P24394 26-825); test: flow cytometry on 293-hIL-4Rα stably transfected cells, anti-human IgG Fab'2-AF647
T2 construct: whole, on cells; also called HEK293-hIL-4Rα
T2 sequence (looked up): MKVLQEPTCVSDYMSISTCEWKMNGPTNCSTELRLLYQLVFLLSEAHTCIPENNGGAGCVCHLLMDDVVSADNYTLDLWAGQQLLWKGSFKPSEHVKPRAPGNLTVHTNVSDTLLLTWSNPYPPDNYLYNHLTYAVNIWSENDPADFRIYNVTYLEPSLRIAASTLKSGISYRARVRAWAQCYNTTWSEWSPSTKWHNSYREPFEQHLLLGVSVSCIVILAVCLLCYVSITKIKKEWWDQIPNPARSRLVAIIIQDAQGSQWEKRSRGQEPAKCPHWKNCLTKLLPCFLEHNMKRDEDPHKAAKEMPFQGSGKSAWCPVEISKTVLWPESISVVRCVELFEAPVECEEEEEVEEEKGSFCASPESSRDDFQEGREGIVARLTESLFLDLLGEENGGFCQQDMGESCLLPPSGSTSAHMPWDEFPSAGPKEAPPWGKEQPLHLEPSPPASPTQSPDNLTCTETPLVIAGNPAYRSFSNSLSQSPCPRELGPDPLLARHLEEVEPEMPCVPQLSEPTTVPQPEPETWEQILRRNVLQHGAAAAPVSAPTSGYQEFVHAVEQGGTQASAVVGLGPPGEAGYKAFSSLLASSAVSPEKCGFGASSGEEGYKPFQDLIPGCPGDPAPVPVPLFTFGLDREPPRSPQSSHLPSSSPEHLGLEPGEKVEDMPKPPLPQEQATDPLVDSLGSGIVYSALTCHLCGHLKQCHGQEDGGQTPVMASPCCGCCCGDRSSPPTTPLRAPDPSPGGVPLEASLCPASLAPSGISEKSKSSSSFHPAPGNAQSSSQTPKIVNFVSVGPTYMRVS
Protocol: Every 1*10⁶ cells corresponds to 100 μl of 3% BSA/PBS solution, and the solution is blocked at 4° C. for 20 minutes. The prepared cells are added to a 96-well U-type plate at a volume of 100 μl/well, and centrifuged at 1100 rpm for 3 minutes, and the supernatant is discarded; and the primary antibody solution is added and incubated for 1 hour on ice. […] After incubation with the primary antibody solution, additional 0.5% BSA/PBS is added to a volume of […], centrifuged at 1100 rpm for 3 minutes, and the supernatant is discarded. 150 μl of 0.5% BSA/PBS is further added, centrifuged at 1100 rpm for 3 minutes, and the supernatant is discarded; before adding a secondary antibody anti-human IgG, Fab′2-AF647, same is diluted at 1:300 with 1% BSA/PBS. 40 μl of the secondary antibody solution is added to each well and incubated on ice for 45 minutes. After incubation with the secondary antibody solution, additional 0.5% BSA/PBS is added to a volume of 150 μl, centrifuged at 1100 rpm for 3 minutes, and the supernatant is discarded; 150 μl of 0.5% BSA/PBS is further added, centrifuged at 1100 rpm for 3 minutes, and the supernatant is discarded; 20-100 μl of PBS is added to resuspend the cells to 1*10⁶ cells per ml, and the obtained suspension is loaded onto a flow cytometer (I-Que screener). After opening the instrument and operating system according to the correct process, and setting the correct parameters, the cells are loaded to the test plate, and the fluorescent signal is detected, analysis is performed using Graph Pad Prism 5 software.

[3] = molecular target: T3, recombinant protein of human IL-4Rα extracellular region (human, UniProt P24394 26-232); test: ELISA on coated human hIL-4Rα (1 ug/ml), HRP-linked secondary antibody, OD450
T3 construct: range 26-232; Made in HEK293-6E cells, purified on nickel chelate; Used biotin-labeled on SA probes in the Fortebio assays and unlabeled as ELISA coat; also called hIL-4Rα; IL-4Rα recombinant protein
T3 sequence: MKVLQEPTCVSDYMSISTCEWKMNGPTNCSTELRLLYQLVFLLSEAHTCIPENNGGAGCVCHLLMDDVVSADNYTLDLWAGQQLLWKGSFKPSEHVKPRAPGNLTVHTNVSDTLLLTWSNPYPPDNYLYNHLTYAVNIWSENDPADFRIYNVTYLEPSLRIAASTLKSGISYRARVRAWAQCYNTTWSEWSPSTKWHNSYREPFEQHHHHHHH
Protocol: as §1

[4] = molecular target: T3, recombinant protein of human IL-4Rα …; test: BLI (Fortebio), biotin-labeled hIL-4Rα on SA probe, antibody 50-3.125 ug/ml
Protocol: PBS is added to any column of the 96-well plate, 100 ul/well, and the 96-well plate is placed in the probe holder cassette. When taking the probe, be careful to completely hang it on the holder to prevent the probe from touching the holder. The immobilized biotin-labeled hIL-4Rα is diluted to 5 ug/ml with PBS; a new 96-well plate is taken, and the diluted immobilized material is added column by column, 100 ul/well. […] A new 96-well plate is taken, and PBS is added to columns 1 and 2, 100 ul/well (the same buffer for both baseline and dissociation); the diluted immobilized material is added to column 3; the analyte diluted according to the series is added to column 4; 10 mM HCl (pH 1.9) is added to column 11; and PBS is added to column 12. The SA probe binds very strongly to the immobilized biotin material. When regenerated, the immobilized material is still bound to the probe, so it can be reused after immobilizing only once. Then the experimental method is set up in the Fortebio software, and then the experimental program is run for detection.

B1: 1021/1013 (antibody, IgG1, V domains shown)
VH: EVQLVESGGGLVKPGGSLRLSCAASGFTFSRYAMSWVRQAPGKGLEWVSTISSGGSYTNYADSVKGRFTISRDNVKNTLYLQMNSLRAEDTAVYYCARATARATEFAYWGQGTLVTVSS
VL: DIQMTQSPSSLSASVGDRVTITCQASQDISNYLNWYQQKPGKAPKLLIYYTSRLHSGVPSRFSGSGSGTDYTLTISSLQPEDFATYFCQQGNTLPLTFGGGTKVEIK
notes: Humanized candidate antibody; also called 1021/1013-IgG; VH1021 with VL1013
[1]
  EC50: 1.4 nM
[2]
  EC50 (read off the curve): ~0.03 nM
[3]
  EC50: 0.064 nM

B2: Clone 25D6 (antibody, V domains shown)
VH: QVQLQQSGAELVKPGASVKMSCKASVNTFTGYNMHWVKQTPGQGLEWIGGLHPGNGDTSYNQKFKGKATLTADKSSNTAYMQLSSLTSEDSAVYYCALTTAGRAWFAYWGQGTLVTVSA
VL: DIQMTQSTSSLSASLGDRVTISCRASQDISNYLNWYQQKPDGTVKLLIYYTSRLHSGVPSRFSGSGSGTDYSLTISNLEQEDIATYFCQQGNTLPWTFGGGTKLEIK
notes: Chimeric IgG: mouse variable regions on human heavy and light chain constant regions (section 6)
[4]
  Kd: 5.9 nM
  koff: 0.000157 s⁻¹
  kon: 26500 M⁻¹ s⁻¹

B3: Clone 36F4 (antibody, V domains shown)
VH: B2 VH with T28I, G66D, K74R
VL: DIKMTQSTSSLSASLGDRVTISCRASQDISNYLNWYQQKPDGTVKLLIYYTSRLHSGVPSRFSGSGSGTDYSLTISNLEQEDIATYFCQQGNTLPPWTFGGGTKLEIK
notes: as for B2
[4]
  Kd: 1.8 nM
  koff: 9.37e-05 s⁻¹
  kon: 50900 M⁻¹ s⁻¹

B4: Clone 1D8 (antibody, V domains shown)
VH: B2 VH with K23T, S25T, V26G, T28I, V37I, K67R, N77S, T78S
VL: DIQMTQTTSSLSASLGDRVTISCRASQDISNYLNWYQQKPDGTVKLLIYYTSRLHSGVPSRFSGSGSGTDYSLTISNLEQEDIATYFCQQGNTLHTFGGGTKLEIK
notes: as for B2
[4]
  Kd: 8.06 nM
  koff: 0.000566 s⁻¹
  kon: 70100 M⁻¹ s⁻¹

B5: Clone 1H9 (antibody, V domains shown)
VH: B2 VH with T30A
VL: B2 VL with T5I
notes: as for B2
[4]
  Kd: 8.9 nM
  koff: 0.000262 s⁻¹
  kon: 29300 M⁻¹ s⁻¹

B6: Clone 2H1 (antibody, V domains shown)
VH: B2 VH with A9T, V37I, T58S, K67R, A107P
VL: B2 VL with T5I, S63R, W96L, G100A, I106L
notes: as for B2
[4]
  Kd: 5.27 nM
  koff: 0.000377 s⁻¹
  kon: 71600 M⁻¹ s⁻¹

B7: Clone 1A6 (antibody, V domains shown)
VH: B2 VH with A9T, V37I, T58S, K67R, A107P
VL: B2 VL with S7T, W96P
notes: as for B2
[4]
  Kd: 11.3 nM
  koff: 0.000602 s⁻¹
  kon: 53000 M⁻¹ s⁻¹

B8: Clone 35A7 (antibody, V domains shown)
VH: B2 VH with Q5K, K23T, V26G, T28I, T30S, V37I
VL: B2 VL with T5N, V44I, H55Y, Q80E, L94I, W96Y
notes: Chimeric IgG (section 6)
[4]
  Kd: < 0.001 nM
  koff: < 1e-07 s⁻¹
  kon: 24700 M⁻¹ s⁻¹

B9: Clone 34H11 (antibody, V domains shown)
VH: B2 VH with Q6E
VL: B2 VL with S7T, I83V
notes: as for B2
[4]
  Kd: 6.6 nM
  koff: 0.000176 s⁻¹
  kon: 26900 M⁻¹ s⁻¹

B10: Clone 34A2 (antibody, V domains shown)
VH: B2 VH with Q1E, T28I, G31S, K63N, N77S, L83V, S85N, A97V
VL: B2 VL
notes: as for B2
[4]
  Kd: < 0.001 nM
  koff: < 1e-07 s⁻¹
  kon: 29000 M⁻¹ s⁻¹

B11: Clone 25G9 (antibody, V domains shown)
VH: B2 VH with Q1E, Q5K, Q6E, T28I, G66D, K74R
VL: B2 VL with K103R
notes: as for B2
[4]
  Kd: < 0.001 nM
  koff: < 1e-07 s⁻¹
  kon: 37900 M⁻¹ s⁻¹

B12: Clone 31B9 (antibody, V domains shown)
VH: B2 VH with Q1E, T28I, G66D, K74R
VL: B2 VL
notes: as for B2
[4]
  Kd: 1.9 nM
  koff: 6.28e-05 s⁻¹
  kon: 33000 M⁻¹ s⁻¹

B13: Clone 35D5 (antibody, V domains shown)
VH: B2 VH with Q5K
VL: B2 VL
notes: as for B2
[4]
  Kd: 1.3 nM
  koff: 5.05e-05 s⁻¹
  kon: 38700 M⁻¹ s⁻¹

B14: Clone 24G10 (antibody, V domains shown)
VH: EVKLVESGGGLVKPGGSLKLSCAASGFTFSRYAMSWVRQTPEKRLEWVATISSGGSYTNYSDSVKGRFTISRDNVKNTLYLQMSSLKSEDSAMYYCARATARATEFAYWGQGTLVTVSA
VL: DIQMTQSTSSLSASLGDRVTISCRASQDISNYLNWYQQKPDGTVKLLIYYTSRLYSGVPSRFSGSGSGTDYSLTISNLEQEDIATYFCQQGNTLPPTFGGGTKLEI
notes: as for B2
[4]
  Kd: 0.94 nM
  koff: 2.37e-05 s⁻¹
  kon: 25300 M⁻¹ s⁻¹
